Results taken from US20160032014A1 (Amgen, published 2016).
Changes are numbered by the printed parent chain. Names may count otherwise.

B1: 19A12 (antibody, human IgG2, kappa, V domains shown)
VH: QVQLVESGGGVVQPGRSLRLSCAASGFTFSSYGMHWVRQAPGKGLEWVAVIWYDGSNKYYADSVKGRFTISRDNSKNTLYLQMNSLRAEDTAVYYCVRDRGLDWGQGTLVTVSS
VL: not shown
notes: tested as hybridoma supernatant
B2: 13G9 (antibody, human IgG2, lambda, V domains shown)
VH: QVQLVQSGAEVTKPGASVKVSCKASGYTFTSYGISWVRQAPGQGLEWMGWISVYKGNTNYAQKLQGRVTMTTDTSTSTAYMELRSLRSDDTAVYYCARNYQIFSFDYWGQGTLVTVSS
VL: QSVLTQPPSVSGAPGQRVTISCTGSRSNIGAGYDVNWYQQLPGTAPKLLIYGNSNRPSGVPDRFSGSKSGTSASLVITGLQAEDEADYYCQSYDSNLSGSVFGGGTKLTVLG
notes: as for B1
B3: SS-14835 (antibody, V domains shown)
VH: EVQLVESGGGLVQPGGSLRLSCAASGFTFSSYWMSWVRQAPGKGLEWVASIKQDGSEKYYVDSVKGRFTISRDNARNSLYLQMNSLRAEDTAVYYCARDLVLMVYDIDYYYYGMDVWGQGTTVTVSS
VL: DIVMTQSPLSLPVTPGEPASISCRSSQSLLHSGNGYNYLDWYLQKPGQSPQLLIYLGLNRASGVPDRFSGSGSGTDFTLKISRVEAEDVGVYYCMQAIHTPLTFGGGTKVEIKR
notes: HC WT, LC G33 insertion, S57L/L97I, Q98H
B4: SS-15196 (antibody, V domains shown)
VH: not shown
VL: B3 VL
notes: HC I107M, LC G33 insertion, S57L, L97I, Q98H
B5: SS-15132 (antibody, V domains shown)
VH: EVQLVESGGGLVKPGGSLRLSCAASGFTFSSYSMNWVRQAPGKGLEWVSSISSSSSYHSYADSVKGRFTISRDNAKNSLYLQMNSLRAEDTAVYFCARDYDFHSAHYDAFDVWGQGTMVTVSS
VL: B2 VL with Q1E, R26S, N36H, Y51S, V76A, N96S
notes: 31H4 His variant: HC 68(58), 132(106), parental(113H)
B6: SS-15114 (antibody, V domains shown)
VH: B5 VH with Y32H, H58I
VL: B2 VL with Q1E, R26S, N36H, Y51S, V76A, N96S
notes: 31H4 His variant: HC 39(32), 132(106), parental(113H)
B7: SS-15065 (antibody, V domains shown)
VH: B5 VH with H58I
VL: B2 VL with Q1E, R26S, Y33H, N36H, Y51S, V76A, N96S
notes: 31H4 His variant: LC 39(32), HC 132(106), parental(113H)
B8: SS-15087 (antibody, V domains shown)
VH: B5 VH with H58I
VL: B2 VL with Q1E, R26S, N36H, Y51S, V76A, N96S, S98H
B9: SS-15121 (antibody, V domains shown)
VH: B5 VH with S54H, H58I
VL: B2 VL with Q1E, R26S, N36H, Y51S, V76A, N96S
notes: 31H4 His variant: HC 61(54), 132(106), parental(113H); parental LC
B10: SS-15139 (antibody, V domains shown)
VH: B5 VH with H58I, D62H
VL: B2 VL with Q1E, R26S, N36H, Y51S, V76A, N96S
notes: 31H4 His variant: HC 72(62), 132(106), parental(113H)
B11: SS-15124 (antibody, V domains shown)
VH: B5 VH with S56H, H58I, Y60H, H106Y
VL: B2 VL with Q1E, R26S, N36H, Y51S, V76A, N96S
notes: 31H4 His variant: HC 66(56), 70(60), parental(113H)
B12: SS-15141 (antibody, V domains shown)
VH: B5 VH with H58I, S63H
VL: B2 VL with Q1E, R26S, N36H, Y51S, V76A, N96S
notes: 31H4 His variant: HC 73(63), 132(106), parental(113H)
B13: SS-15126 (antibody, V domains shown)
VH: B5 VH with S56H, H58I, S63H, H106Y
VL: B2 VL with Q1E, R26S, N36H, Y51S, V76A, N96S
notes: 31H4 His variant: HC 66(56), 73(63), parental(113H)
B14: SS-15136 (antibody, V domains shown)
VH: B5 VH with H58I, Y60H
VL: B2 VL with Q1E, R26S, N36H, Y51S, V76A, N96S
notes: 31H4 His variant: HC 70(60), 132(106), parental(113H)

These binders were tested against T1, human PCSK9 (self-cleaved, mature, secreted PCSK9 comprising amino acids 31 to 692 of SEQ ID NO: 2) (human, UniProt Q8NBP7 31-692, biotinylated in the ELISAs) (assay: ELISA pH 6, sup 1:125, expt 2).
T1 construct: Limits 31-692 are stated for the immunogen; the assays only say human PCSK9; also called huPCSK9; rhu PCSK9
For B1, the “OD 450 nm” value was 2.5 OD.
For B2, the “OD 450 nm” value was 4.2 OD.

Each binder was assayed against T1, human PCSK9 (self-cleaved, mature, …) (assay: ELISA pH 6, sup 1:625, expt 2).
With B1 the “OD 450 nm” value was 1.8 OD.
B2 was tested, and the “OD 450 nm” value was 1.6 OD.

Each binder was assayed against T1, human PCSK9 (self-cleaved, mature, …) (assay: solution equilibrium, BIAcore).
With B3 the “KD ratio pH 5.5/pH 7.4” value was 8.9.
With B4 the “KD ratio pH 5.5/pH 7.4” value was 10.2.

What follows are binders tested against T1, human PCSK9 (self-cleaved, mature, …) (assay: solution equilibrium, BIAcore, pH 7.4).
For B3, the Kd was 350 pM.
In the case of B4, the Kd is reported as 56 pM.

These binders were tested against T1, human PCSK9 (self-cleaved, mature, …) (assay: ELISA, sup 1:625, expt 1).
With B1 the “OD diff (pH 7.4 - pH 6)” value was 1.2 OD.
In the case of B2, the “OD diff (pH 7.4 - pH 6)” value is reported as 1.5 OD.

What follows are binders tested against T1, human PCSK9 (self-cleaved, mature, …) (assay: ELISA pH 6, sup 1:125, expt 1).
With B1 the “OD 450 nm” value was 2.9 OD.
B2 was tested, and the “OD 450 nm” value was 3.8 OD.

Each binder was assayed against T1, human PCSK9 (self-cleaved, mature, …) (assay: ELISA, sup 1:125, expt 2).
In the case of B1, the “OD diff (pH 7.4 - pH 6)” value is reported as 1.4 OD.
With B2 the “OD diff (pH 7.4 - pH 6)” value was 1.8 OD.

Each binder was assayed against T1, human PCSK9 (self-cleaved, mature, …) (assay: ELISA pH 7.4, sup 1:125, expt 1).
With B1 the “OD 450 nm” value was 3.6 OD.
B2 was tested, and the “OD 450 nm” value was 6 OD.

What follows are binders tested against T1, human PCSK9 (self-cleaved, mature, …) (assay: SPR pH 7.4).
For B5, the Kd was 273 pM, the koff was 0.000338 s⁻¹ and the kon was 1.24e+06 M⁻¹ s⁻¹.
In the case of B6, the Kd is reported as 271 pM, the koff is reported as 0.00015 s⁻¹ and the kon is reported as 555000 M⁻¹ s⁻¹.
B7 gave a Kd of 274 pM, a koff of 0.000337 s⁻¹ and a kon of 1.23e+06 M⁻¹ s⁻¹.
B8 showed a Kd of 229 pM, a koff of 0.000288 s⁻¹ and a kon of 1.26e+06 M⁻¹ s⁻¹.
Binder B9 has a Kd of 383 pM, a koff of 0.000563 s⁻¹ and a kon of 1.47e+06 M⁻¹ s⁻¹.
Work on B10 yielded a Kd of 190 pM, a koff of 0.000248 s⁻¹ and a kon of 1.31e+06 M⁻¹ s⁻¹.
B11 gave a Kd of 327 pM, a koff of 0.000525 s⁻¹ and a kon of 1.6e+06 M⁻¹ s⁻¹.
B12 gave a Kd of 185 pM, a koff of 0.000255 s⁻¹ and a kon of 1.38e+06 M⁻¹ s⁻¹.
With B13 the Kd was 257 pM, the koff was 0.000385 s⁻¹ and the kon was 1.5e+06 M⁻¹ s⁻¹.
B14 gave a Kd of 241 pM, a koff of 0.000298 s⁻¹ and a kon of 1.23e+06 M⁻¹ s⁻¹.

The binders below were run against T1, human PCSK9 (self-cleaved, mature, …) (assay: ELISA, supernatant on captured biotin-PCSK9, early primary screen).
In the case of B1, the “OD 450 nm” value is reported as 3.7 OD.
B2 was tested, and the “OD 450 nm” value was 3.8 OD.

Each binder was assayed against T1, human PCSK9 (self-cleaved, mature, …) (assay: ELISA, supernatant on captured biotin-PCSK9, late primary screen).
In the case of B1, the “OD 450 nm” value is reported as 3.8 OD.
B2 was tested, and the “OD 450 nm” value was 3.6 OD.

The binders below were run against T1, human PCSK9 (self-cleaved, mature, …) (assay: ELISA pH 7.4, sup 1:625, expt 2).
B1 was tested, and the “OD 450 nm” value was 2.5 OD.
With B2 the “OD 450 nm” value was 1 OD.

The binders below were run against T1, human PCSK9 (self-cleaved, mature, …) (assay: ELISA pH 7.4, sup 1:625, expt 1).
In the case of B1, the “OD 450 nm” value is reported as 3 OD.
For B2, the “OD 450 nm” value was 3.4 OD.

Target: T1, human PCSK9 (self-cleaved, mature, …)
Assay: SPR pH 7.4
Remark: another data set of the same source
Binder B3 has a Kd of 534 pM, a koff of 0.000163 s⁻¹ and a kon of 306000 M⁻¹ s⁻¹.
Work on B4 yielded a Kd of 134 pM, a koff of 5.06e-05 s⁻¹ and a kon of 377000 M⁻¹ s⁻¹.

Each binder was assayed against T1, human PCSK9 (self-cleaved, mature, …) (assay: ELISA pH 6, sup 1:625, expt 1).
For B1, the “OD 450 nm” value was 1.9 OD.
With B2 the “OD 450 nm” value was 2 OD.

These binders were tested against T1, human PCSK9 (self-cleaved, mature, …) (assay: solution equilibrium, BIAcore, pH 5.5).
In the case of B3, the Kd is reported as 3100 pM.
B4 showed a Kd of 570 pM.

The binders below were run against T2, human D374Y PCSK9 (human, UniProt Q8NBP7 31-692, limits assumed, biotinylated in the blocking ELISA) (assay: ELISA, blocking of biotin-D374Y PCSK9 binding to LDLR, expt. #1).
T2 construct: also called D374Y PCSK9 mutant; biotinylated human D374Y PCSK9
In the case of B1, the “% Inhibition” value is reported as 89%.
B2 was tested, and the “% Inhibition” value was 62%.

What follows are binders tested against T1, human PCSK9 (self-cleaved, mature, …) (assay: ELISA pH 7.4, sup 1:125, expt 2).
For B1, the “OD 450 nm” value was 3.9 OD.
In the case of B2, the “OD 450 nm” value is reported as 6 OD.

What follows are binders tested against T1, human PCSK9 (self-cleaved, mature, …) (assay: ELISA, sup 1:625, expt 2).
B1 was tested, and the “OD diff (pH 7.4 - pH 6)” value was 0.7 OD.
B2 was tested, and the “OD diff (pH 7.4 - pH 6)” value was -0.6 OD.

Each binder was assayed against T1, human PCSK9 (self-cleaved, mature, …) (assay: SPR pH 5.5).
In the case of B5, the “estimated complex half life pH 5.5” value is reported as 20 s.
For B6, the “estimated complex half life pH 5.5” value was 100 s.
In the case of B7, the “estimated complex half life pH 5.5” value is reported as 100 s.
With B8 the “estimated complex half life pH 5.5” value was 100 s.
B9 was tested, and the “estimated complex half life pH 5.5” value was 20 s.
In the case of B10, the “estimated complex half life pH 5.5” value is reported as 100 s.
With B11 the “estimated complex half life pH 5.5” value was 100 s.
With B12 the “estimated complex half life pH 5.5” value was 100 s.
For B13, the “estimated complex half life pH 5.5” value was 100 s.
B14 was tested, and the “estimated complex half life pH 5.5” value was 100 s.

Target: T1, human PCSK9 (self-cleaved, mature, …)
Assay: SPR pH 7.4
Remark: another data set of the same source
Binder B3 has a Kd of 534 pM, a koff of 0.000163 s⁻¹ and a kon of 306000 M⁻¹ s⁻¹.
For B4, the Kd was 134 pM, the koff was 5.06e-05 s⁻¹ and the kon was 377000 M⁻¹ s⁻¹.

The binders below were run against T2, human D374Y PCSK9 (assay: ELISA, blocking of biotin-D374Y PCSK9 binding to LDLR, expt. #2).
For B1, the “% Inhibition” value was 91%.
With B2 the “% Inhibition” value was 77%.

The binders below were run against T1, human PCSK9 (self-cleaved, mature, …) (assay: ELISA, sup 1:125, expt 1).
B1 was tested, and the “OD diff (pH 7.4 - pH 6)” value was 0.7 OD.
For B2, the “OD diff (pH 7.4 - pH 6)” value was 2.2 OD.
